Assay results reported in the DeepSol protein solubility set.

Experiment: soluble on expression in E. coli; label from the status in PepcDB or PDB records
For “MGSDKIHHHHHHMKVSEFDYELPPELIAQEPVEPRDASRLMVLHRKTQRIEHRIFREIIEYLEPGDLLVLNVSKVIPARLYARKKTGASIEILLIERLEEGIWKCLVRPGQKVKKGTELVIDEDLSAVCLGRGEDGTRILKFQPQDDRLIFEKGRTPLPPYIKNEVPLERYQTVYAKEEGSVAAPTAGLHFTPELIEKLKKKGVQFAEVVLHVGIGTFRPVKVEEVEKHKMHEEFYQVPKETVRKLRETRERGNRIVAVGTTTVRTLETIARLPEQEEYVGKTDLFIYPPFEFKLVDALVTNFHLPRSTLLMLVAAFAGKDFVMEAYREAVKRRYRFFSFGDAMLIL”, the “soluble on expression in E. coli” value was “soluble”.
With “STYEYKRELREGARGKWINLRQHLNSGTRLEKELIKVDRQIDKKAAEIKEIEDLLFKIEQYKAENNIR” the “soluble on expression in E. coli” value was “not soluble”.
For “MKHLIVVPPRMNLYIKKNLAINDIFREFVANEDLWPYSIDESILDLTHTWRLFGKTPRAVAQLIQHTIRHRLGLYTTVGIGDNPLQAKIALDVYAKHDPNLIGQISYLEHHHHHH”, the “soluble on expression in E. coli” value was “not soluble”.
In the case of “MGSDKIHHHHHHMGHATEIQVLVVDESAPSRAFIASTLENGGYIVTSVASGEEAVHEVNAAPFDILVTDINLPGMSGLNLLKLLKDSFPDLEVVIVTSNASSFTAIKALRLGAYDFIIKPVDDPAILTNIVGRAVEKQSLTRENRRLMDDMKLKNRELHDALHLMKSANRLCTAISASLDAGEILKRLVEGAVEEVKAKKGYLLLLDRDGSSFSMKVSVGVSRTLAKGFRLRHDQGIAGLVATNNKPLRIDEEVPPPLTHRMLEEDPNGELFTTPGIVTVPLQFKGRVAGVVTLSGRADGRAFTDAEIEFLTTLANHSAIALDTAGAFYKLRKGTS”, the “soluble on expression in E. coli” value is reported as “not soluble”.
With “MAHHHHHHMQQLEQELSLRQSAIETREQQLEMVQLDGARGREAIMRERHSIEEVRRTVRVERCRQRRLWIHQIKEMNAKVLEQVRLLAEERKKNCEQATAKEDAAERAFAADIKMIEEYLPKLISLEDIPVNPEETDIIRRQFDEVFTQGEQTYLASAEEEQARKERLGRGLEVYRQRMLDDYVGKENGKLHDAEATERHLSSVVDQVLN” the “soluble on expression in E. coli” value was “not soluble”.
In the case of “MGSDKIHHHHHHMKVTLIGIDLAKNVLQVCGVNQVGKTLFNRTVKRTQLLKTLVQYPDAVIAMEACSGSNYWGRELLSRGFEVKLIPPQHVKPFVKGNKNDRNDAFAICEAAMRPNIIFVKPRTLAQVDIIISHRIRERRIRVRTALTNQIRGLLSEYGIVIPKGRDPLNLALPELLEDADNSLTTTARRYIRELLDELYAINASIKALEKEIRLQARNHEDTKRLTAIRGVAEIIATASVSFAGDGSGYQNGRHFSANLGLVPKEFSSGGKQKLGAITKRGNSYLRRQLIQGAWSVIRYAKNNDDRLSVWARKVIERRGKQKAAVAVANKLARIIWAMLYYKTEYRPS”, the “soluble on expression in E. coli” value is reported as “not soluble”.
For “MGSSHHHHHHSSGLVPRGSHMAPIVETAKETNSDSSLYLDLMIKVLAGTVYEDPAHRENFSHRDSTYREEVRNEGRDWPANAHTMIGIKRLENIRQCVEDVIGNNVPGDLVETGVWRGGACILMRGILRAHDVRDRTVWVADSFQGIPDVGEDGYAGDRKMALHRRNSVLAVSEEEVRRNFRNYDLLDEQVRFLPGWFKDTLPTAPIDTLAVLRMDGDLYESTWDTLTNLYPKVSVGGYVIVDDYMMCPPCKDAVDEYRAKFDIADELITIDRDGVYWQRTR”, the “soluble on expression in E. coli” value was “soluble”.
For “MGHHHHHHSHMYFVGCGYNAFPVGSEYADFPHMDDKQKDREIRKFRYIIHAEQNALTFRCQEIKPEERSMIFVTKCPCDECVPLIKGAGIKQIYAGDVDVGKKKADISYMRFGELEGVSKFTWQLNPSGAYGLEQNEPERRERDLSHRRKSSTRTRSCASESTKKACLHCRGTSRTFHCTSKIQPCSFRK”, the “soluble on expression in E. coli” value was “not soluble”.
With “MAHHHHHHMSDKLEDIGEFVLVIGDFHSPMRNLGLPDCFKDLLKTDKIKHVLCTGNVGCNENLELLKNIADSVHITKGDMDNNFDFPEKINIKIGDFKISLVHGHQIIPWGDLNALLQWQKEYDSDIIISGHTHKNSINNFEGKYFINPGSATGAFQPWISNPTPSFILMAISKSSIVVYVYEEKNGKMNVEMSELRKQ” the “soluble on expression in E. coli” value was “soluble”.
For “MSLTKPIIGITANVRPNPAHEDIKWSYAPSGFVEGVQKAGGLAILLPVSDPLEAKTYISMIDKLILIGGQNIDPKFYNEENHACEDDFFLERDLFEMALIEEATKQKKPIFSICRGTQLMNVALGGSLHQDIKRHWQDKPSDYLYHEIIIDKNSKLAEIYGLETSINSFHHQSIKHLASDLRVIARDPEDNTVEAIESNTPDLRYLGVQWHPELLLNKREEDLKLFEYVVDELEGHHHHHH”, the “soluble on expression in E. coli” value was “soluble”.
With “SNAMLFDEKEILAITRWAKLYANQSPDRILLGSNDIPPEYRAAVATQIELWPRLRNKLPQWAGISSLYIPSRLSLEQSSGAVTSSYKSRFIREGTKVVDLTGGLGIDFIALMSKASQGIYIERNDETAVAARHNIPLLLNEGKDVNILTGDFKEYLPLIKTFHPDYIYVDPARRSGADKRVYAIADCEPDLIPLATELLPFCSSILAKLSPMIDLWDTLQSLLHVQELHVVAAHGEVKELLVRMSLNEATIPPEKVPIHAINLLLEDTVIPFIFTMEEERSISIPYTDSIDKYVYEPHTALLKAGAFKTVAYRLGLRKLHPNSHLYTSEAYESAFPGRTFVLEEIIPFSTSVLKQLRKVVPQASISCRNFPLSPIELRQRSKMADGGEKTLMGTTMADGKKVLLLLRKAE” the “soluble on expression in E. coli” value was “soluble”.
For “MAHHHHHHMKLFLTVVERHNSTNSSDVTPTDDVALFDPGVWSRTATSEMARRNVSASYVAQQVYRHAALTQLAKVALSSAVCFRYGPRPPPHLDSFLFHKRCRPTGHGRCGTPPAAAAPPVCAPSPLISSSSSSFSVNMAATSPGTGQQRSTAAGASDSATEYDSLLALWLRELLSGTDSSVTVTALLLFVEGTAIDMATGSKVHTPLNIGSGTARQLRTHEDAMAFLHACESTLHHSAAEFPRCPYHVCVAVLVGTHGGSHGKNPVIFLDVAAAAPESAGAHQEVRLREQVALFGRQLGADATTATPHARQRTRKAEDEQWLSLLQSCQLSRASLVGLVYVACEAGHDPFGHSRVEGTDCDPFTLASVLRQRALLEAVNNGVLHPQLRKLSRARNRATARAVKLPASGATTRSRAPASPLKGRPSRGRQRPQQHSPKLPYLARDSVPPRRTQEHSIVFYGVSRCGRSADLLARIEEEEHHARVALSSAEQRAWNLAELRWILRAHPPGKSIDAMLRRFAHNVDGVSRPEQQHPHSVPPRFLPPPLNVAQLATAISRPSTTATRRSSFASATRTPESTSPGGTVRTRVTASMLPTSPSRLALTSTFFTRRITTPLFFREAGSPPQNQDDPRAHSASSHVAVRGHNATELERRRLKSGATFSLATDSPNARACTTARRLSAIETALLARAHSSSQRSLPSPSPCTGEVERLYPLVRAFHVEMCEQDALMAEELMMRSCIEHKEKNCRKTLSVARAESVRRLSVWWPSETGTQPQREPQVPDSPRWRPAKPLPLRIFFQQ”, the “soluble on expression in E. coli” value was “not soluble”.
With “MSDRKPVRGRHQARKRAVALLFEAEVRGISAAEVVDTRAALAEAKPDIARLHPYTAAVARGVSEHAAHIDDLITAHLRGWTLDRLPAVDRAILRVSVWELLHAADVPEPVVVDEAVQLAKELSTDDSPGFVNGVLGQVMLVTPQLRAAAQAVRGGA” the “soluble on expression in E. coli” value was “soluble”.
With “MGKVNVAKLRYMSRDDFRVLTAVEMGMKNHEIVPGSLIASIASLKHGGCNKVLRELVKHKLIAWERTKTVQGYRLTNAGYDYLALKTLSSRQVVESVGNQMGVGKESDIYIVANEEGQQFALKLHRLGRTSFRNLKNKRDYHKYRHNVSWLYLSRLSAMKEFAYMKALYERKFPVPKPIDYNRHAVVMELINGYPLCQIHHVEDPASVYDEAMELIVKLANHGLIHGDFNEFNLILDESDHITMIDFPQMVSTSHPNAEWYFDRDVKCIKDFFMKRFSYESELFPTFKDIRREDTLDVEVSASGYTKEMQADDELLHPLGPDDKNIETKEGSEFSFSDGEVAEKAEVYGSENESERNCLEESEGCYCRSSGDPEQIKEDSLSEESADARSFEMTEFNQALEEIKGQVVENNSVTEFSEEKNRTENYNRQDGQRVQGGVPAGSDEYEDECPHLIALSSLNREFRPFRDEENVGAMNQYRTRTLSITSSGSAVSCSTIPPELVKQKVKRQLTKQQKSAVRRRLQKGEANIFTKQRRENMQNIKSSLEAASFWGE” the “soluble on expression in E. coli” value was “not soluble”.
With “MNIEEIKIMGGFNKFGESEKVKELVVKRGEIFGVVGPTGSGKSNLISDIEQLAQGDTPSNRKILVNGNVPDTEMRRDPRKRRIAQLSQNMNFLADMTVEEFLIMHAKSRGMNSEGIVDKVIKLANNLTGEPIEKDYNLTILSGGQSRSLMVADVAVISDSPIVLIDEIENAGIKKHEALELLAGCGKIVMVITHDPVLALMTTRRVVMRNGGMNEIIETTE” the “soluble on expression in E. coli” value was “not soluble”.
For “MNFRPIAGIDVGKFFSEMAILSPSNEVIARMKIRHDSSTDVERAVELLKKTEKDFDSRPFVVMESTGHYHKILFHSLYKAGFEVSVINPIQTDSIKNIGIRKVKNDKVDARKIALLYRFQELKIQYPERYGCWTLARNKACEVWYNRKGLAAALR”, the “soluble on expression in E. coli” value was “not soluble”.
With “MKSMQDYRTIMTGNDAVAYGAKLARVKLISAYPITPQTTIVEKLASMIANDELDAKYVKVESEHSALATVVSSELAGVRSYTATSSHGLLYMHEMLHWASGQRLPIVMSVVNRAIGPPWNIWADQSDTMNQKDTGWMQVYCESNQEALDTIIMGYKIAENKDVLLPLMSMEDAFILSHTSEPVTIRDQESVNEYLPDLDLPFKINEEHPMGYGSYDTPDGSFMELKKDMVDSMQKAKRIIEDETRKFNEMFGTEYGGLIEKYRMEDADYAIIATGTIASTARYVVDILRKKGEKVGLIRIRYFRPFPYEEILSSLKYVKAAGVIDRSVSFSSGGPTYVEIVQGLYGKLNVPLSSFIAGIGGRDVRIQDIENIYEMLKSGNSGTYWINVKEVR” the “soluble on expression in E. coli” value was “not soluble”.
For “MSLKITAARVIITCPGRNFVTLKIETDQGVYGIGDATLNGRELSVVAYLAGTRRALPHRHGPAPHRGHLAVCLSRAYWRAPARLTMRAIAAVDMALWDIKAKMAGMPLYQLLGGRSRDGIMVYGHANGSDIAETVEAVGHYIDMGYKAIRAQTGVPGIKDAYGVGRGKLYYEPADASLPSVTGWDTRKALNYVPKLFEELRKTYGFDHHLLHDGHHRYTPQEAANLGKMLEPYQLFWLEDCTPAENQEAFRLVRQHTVTPLAVGEIFNTIWDAKDLIQNQLIDYIRATVVGAGGLTHLRRIADLASLYQVRTGCHGATDLSPVTMGCALHFDTWVPNFGIQEYMRHTEETDAVFPHDYWFEKGELFVGETPGHGVDIDEELAAKYPYKPAYLPVARLEDGTMWNWEGHHHHHH”, the “soluble on expression in E. coli” value was “not soluble”.
In the case of “MKFKIHSDITYQVMSPTTFIFNVHALRTESQHILDESLIVTPPIEIEEFSYNSGTSRFVRLKATENTTFSMSYTATVDTQYKVIDQRQELETVPVVDLDGDIIPFLFPSRYCQSDKLQKLAYKEFGKIENVYSKVLAITDWIYNNVEYISGSTNSQTSAFDTITERAGVCRDFAHLGIALCRALSIPARYFTGYAFKLNPPDFHACFEAYIGGNWIIFDATRLVPLNGLVKIATGRDAADAAVASIFGNASSTNMHVECASLDTDFTPFWYDKNSLKGLSFQ”, the “soluble on expression in E. coli” value is reported as “soluble”.
